{"source": "paper PMC10090083", "about": "“Structural basis of impaired disaggregase function in the oxidation-sensitive SKD3 mutant causing 3-methylglutaconic aciduria” (Nature Communications, 2023)", "proteins": {"B1": {"name": "Ank domain of human SKD3 isoform-1 (ANK_(iso1), residues 132-351) (domain or fragment, UniProt Q9H078 132-351, looked up)", "chain": "SNKDAALLEAARANNMQEVSRLLSEGADVNAKHRLGWTALMVAAINRNNSVVQVLLAAGADPNLGDDFSSVYKTAKEQGIHSLEDGGQDGASRHITNQWTSALEFRRWLGLPAGVLITREDDFNNRLNNRASFKGCTALHYAVLADDYRTVKELLDGGANPLQRNEMGHTPLDYAREGEVMKLLRTSEAKYQEKQRKREAEERRRFPLEQRLKEHIIGQE", "notes": "human SKD3 (CLPB) isoform-1, Ank domain construct, residues 132-351; TEV-cleavable tag; also called isolated Ank domain of SKD3; source: E. coli BL21-CodonPlus (DE3)-RIL, purified (IMAC, anion exchange, SEC); not shown: His6-SUMO, N-terminal, cleaved"}}, "target": "the molecule itself", "experiment": "not stated; oligomeric state of the isolated Ank domains in solution (Supplementary Fig. 1a, b); method not given"}
{"protein": "B1", "values": [{"measurement": "stoichiometry N", "result": 2}]}
